The record followed here is paper PMC8999790, “The Transition of Photoreceptor Guanylate Cyclase Type 1 to the Active State” (International Journal of Molecular Sciences, 2022).

Format in all cases: biochemical, Homo sapiens
Substrate in data set [1]: Nc1nc2c(ncn2[C@@H]2O[C@H](COP(=O)(O)OP(=O)(O)OP(=O)(O)O)[C@@H](O)[C@H]2O)c(=O)[nH]1
Briefly: cells, lysate or membranes. As to conditions: Mg-GTP, pH 7.2, 30 °C, half-maximal saturation.

Substrate in data set [2]: Nc1nc2c(ncn2[C@@H]2O[C@H](COP(=O)(O)OP(=O)(O)OP(=O)(O)O)[C@@H](O)[C@H]2O)c(=O)[nH]1
Kind of data set: cGMP formation by HPLC in HEK293 membranes, Hill fit. As to conditions: Mg-GTP, 5 uM GCAP1, <=10 nM free Ca2+ (2 mM EGTA), pH 7.2, 30 °C, half-maximal saturation, Hill h 1.75. From the text:
cGMP formation by HPLC in HEK293 membranes, Hill fit on human GC-E + GCAP1

Substrate in data set [3]: Nc1nc2c(ncn2[C@@H]2O[C@H](COP(=O)(O)OP(=O)(O)OP(=O)(O)O)[C@@H](O)[C@H]2O)c(=O)[nH]1
The data set is described as above. As to conditions: Mg-GTP, no GCAPs, <=10 nM free Ca2+ (2 mM EGTA), pH 7.2, 30 °C, half-maximal saturation, Hill h 1.58. The source says: cGMP formation by HPLC in HEK293 membranes, Hill fit on human GC-E (no GCAPs)

Substrate in data set [4]: Nc1nc2c(ncn2[C@@H]2O[C@H](COP(=O)(O)OP(=O)(O)OP(=O)(O)O)[C@@H](O)[C@H]2O)c(=O)[nH]1
The data set is described as above. To be noted: Mg-GTP, 5 uM GCAP2, <=10 nM free Ca2+ (2 mM EGTA), pH 7.2, 30 °C, half-maximal saturation, Hill h 1.76. From the text: cGMP formation by HPLC in HEK293 membranes, Hill fit on human GC-E + GCAP2

Setting [5] is: 5 uM GCAP1, <=10 nM free Ca2+ (2 mM EGTA), Hill h 1.75, apparent KM.
Setting [6] is: no GCAPs, <=10 nM free Ca2+ (2 mM EGTA), Hill h 1.58, apparent KM.
[7] abbreviates: 5 uM GCAP2, <=10 nM free Ca2+ (2 mM EGTA), Hill h 1.76, apparent KM.

B1: human GC-E + GCAP1 (Homo sapiens; V902L) (protein)
chain: AVFTVGVLGPWACDPIFSRARPDLAARLAAARLNRDPGLAGGPRFEVALLPEPCRTPGSLGAVSSALARVSGLVGPVNPAACRPAELLAEEAGIALVPWGCPWTQAEGTTAPAVTPAADALYALLRAFGWARVALVTAPQDLWVEAGRSLSTALRARGLPVASVTSMEPLDLSGAREALRKVRDGPRVTAVIMVMHSVLLGGEEQRYLLEAAEELGLTDGSLVFLPFDTIHYALSPGPEALAALANSSQLRRAHDAVLTLTRHCPSEGSVLDSLRRAQERRELPSDLNLQQVSPLFGTIYDAVFLLARGVAEARAAAGGRWVSGAAVARHIRDAQVPGFCGDLGGDEEPPFVLLDTDAAGDRLFATYMLDPARGSFLSAGTRMHFPRGGSAPGPDPSCWFDPNNICGGGLEPGLVFLGFLLVVGMGLAGAFLAHYVRHRLLHMQMVSGPNKIILTVDDITFLHPHGGTSRKVAQGSRSSLGARSMSDIRSGPSQHLDSPNIGVYEGDRVWLKKFPGDQHIAIRPATKTAFSKLQELRHENVALYLGLFLARGAEGPAALWEGNLAVVSEHCTRGSLQDLLAQREIKLDWMFKSSLLLDLIKGIRYLHHRGVAHGRLKSRNCIVDGRFVLKITDHGHGRLLEAQKVLPEPPRAEDQLWTAPELLRDPALERRGTLAGDVFSLAIIMQEVVCRSAPYAMLELTPEEVVQRVRSPPPLCRPLVSMDQAPVECILLMKQCWAEQPELRPSMDHTFDLFKNINKGRKTNIIDSMLRMLEQYSSNLEDLIRERTEELELEKQKTDRLLTQMLPPSVAEALKTGTPVEPEYFEQVTLYFSDIVGFTTISAMSEPIEVLDLLNDLYTLFDAIIGSHDVYKVETIGDAYMVASGLPQRNGQRHAAEIANMSLDILSAVGTFRMRHMPEVPVRIRIGLHSGPCVAGVVGLTMPRYCLFGDTVNTASRMESTGLPYRIHVNLSTVGILRALDSGYQVELRGRTELKGKGAEDTFWLVGRRGFNKPIPKPPDLQPGSSNHGISLQEIPPERRRKLEKARPGQFS
notes: full-length GC-E transiently expressed in HEK293, membrane suspension
B1: in data set [1] (setting [5]), the Km was 0.20 mM and the specificity constant (kcat/Km) came to 4000 M⁻¹ s⁻¹. Further, in data set [2], the K0.5 turned out to be 0.20 mM and the specificity constant (kcat/Km) stood at 4000 M⁻¹ s⁻¹.

B2: human GC-E (no GCAPs) (Homo sapiens; V902L) (protein)
chain: B1 chain
notes: full-length GC-E transiently expressed in HEK293, membrane suspension; no GCAP added
In the case of B2, in data set [1] (setting [6]), the Km was 0.34 mM and the kcat/Km came to 2100 M⁻¹ s⁻¹. In data set [3], the K0.5 was 0.37 mM and the kcat/Km was determined as 2100 M⁻¹ s⁻¹.

B3: human GC-E + GCAP2 (Homo sapiens; V902L) (protein)
chain: B1 chain
notes: as for B1
In the case of B3, in data set [4], the K0.5 was 0.36 mM and the kcat/Km came out at 2200 M⁻¹ s⁻¹. In addition, in data set [1] (setting [7]), the Km was determined as 0.31 mM and the kcat/Km was 2200 M⁻¹ s⁻¹.
